Data published in patent US20250369024A1, “Acyloin Condensation Reactions, Enzymes, and Products Thereof” (Mojia Biotech Pte. Ltd., priority 2023, published 2025).

Experiments:
Assay type in all cases: cell-based, E. coli
Methional = assay: HACS screening, methional-C1 condensation (resting cells), desmeninol; conditions: 20 mM methional and 20 mM formate, 3 hours
Description: (§1) To implement the C1 elongation pathway for leucic acid production in vivo, we engineered vectors to independently control expression of various HACS candidates and the acyl-CoA transferase from Clostridium aminobutyricum (CaAbfT), with HACS under control of the IPTG-inducible T7 promoter in pCDFDuet-1 and CaAbfT under control of a cumate-inducible T5 promoter in pETDuet-1. As a host for these vectors, we used an engineered strain of E. coli based on MG1655(DE3) with knockouts for formaldehyde (ΔfrmA) and formate (ΔfdhF ΔfdnG ΔfdoG) oxidation as well as for glycolate utilization (ΔglcD).
(§2) In vivo product synthesis was conducted using M9 minimal media (6.78 g/L Na2HPO4, 3 g/L KH2PO4, 1 g/L NH4Cl, 0.5 g/L NaCl, 2 mM MgSO4, 100 μM CaCl2), and 15 μM thiamine-HCl) unless otherwise stated. Cells were initially grown in 96-deep well plates (USA Scientific, Ocala, FL) containing 0.5 mL of the above media further supplemented with 20 g/L glycerol, 10 g/L tryptone, and 5 g/L yeast extract. […]
(§3) Cells from the above pre-cultures were then centrifuged (4000 rpm, 22° C.), washed with the above minimal media without any carbon source, and resuspended with 1 mL of above minimal media containing indicated amounts of carbon source. […] After incubation at 30° C. for 3 hours, the cells were pelleted by centrifugation and the media was analyzed using HPLC.

Isovaleraldehyde = assay: HACS screening, isovaleraldehyde-C1 condensation (resting cells), leucic acid; conditions: 20 mM isovaleraldehyde and 20 mM formate, 3 hours
Description: as §1, §2, §3

Glycolaldehyde = assay: HACS screening, glycolaldehyde-C1 condensation (resting cells), glyceric acid; conditions: 20 mM glycolaldehyde and 20 mM formate, 3 hour
Description: To implement the C1 elongation pathway for glyceric acid production in vivo, we engineered vectors to independently control expression of various HACS candidates and the acyl-CoA transferase from Clostridium aminobutyricum (CaAbfT), with HACS under control of the IPTG-inducible T7 promoter in pCDFDuet-1 and CaAbfT under control of a cumate-inducible T5 promoter in pETDuet-1. As a host for these vectors, we used an engineered strain of E. coli based on MG1655(DE3) with knockouts for formaldehyde (ΔfrmA) and formate (ΔfdhF ΔfdnG ΔfdoG) oxidation as well as for glycolate utilization (ΔglcD).
as §2
Cells from the above pre-cultures were then centrifuged (4000 rpm, 22° C.), washed with the above minimal media without any carbon source, and resuspended with 1 mL of above minimal media containing indicated amounts of carbon source. […] After incubation at 30° C. for 3 hour, the cells were pelleted by centrifugation and the media was analyzed using HPLC.

Succinic semialdehyde = assay: HACS screening, succinic semialdehyde-C1 condensation (resting cells), 2-hydroxyglutaric acid; conditions: 20 mM succinic semialdehyde and 20 mM formate, 3 hours
Description: as §1, with “2-hydroxyglutaric” for “leucic”
as §2, §3

B1: RuHACL: Engineered 2-hydroxyphytanoyl-CoA lyase [Rhodospirillales bacterium URHD0017], SEQ ID NO: 1 (protein)
chain: MSEVDGATLIARSLKQQGIDHLFGVVGFPITAIAAAAQKEGVAYLGMRNEQSAAYAAAAYGYLTGRPGAAVVVTGPGVVHGLSGLANAQQNCWPMILIGGASETYRGGMGAFQEERQVLIASPFCKFAHGIESVARIPFYVEMATRNAIYGRPGATYLDMPDDIIRGTCETDKIAQAERVPEAPRSVAPAENVEAALDLLEKAQRPLVLLGKGMAWSRGEDEVRAFIERTQVPFVRSPMGKGVMPDDHPLSASAARTLALQQADVIFLMGARLNWIFHFGLPPRYAKDVKVIQLDIAPEEIGHNKPTEVALVGDGKAIMAQLNKALVNRQWFHPKDTPWRQALTKKAAENVATIKPQVDDDQGPAGYYRALRDVAAWMPKNAILSAEGANTMDIGLTQLASSNARSVLNAGTYGTMGVGLGQAIAAAVSDPSRPVIHLSGDSAIGFSGMEMETLVRYNLPVKIVVLNNGGIGPGMPEIPENPMFNLKPNALIYGARYDKVMEAFGGKGIFVKEPKDIRKALDEAMAFKGPALVNVVLSQGSTRKAQQFAWHS
modifications: Rhodospirillales bacterium URHD0017 engineered 2-hydroxyphytanoyl-CoA lyase
Product flux, substrate Methional, product Desmeninol (Methional): 20.0 μM/OD/h | Product flux, substrate Isovaleraldehyde, product Leucic acid (Isovaleraldehyde): 12.5 μM/OD/h | Product flux, substrate Glycolaldehyde, product Glycerate (Glycolaldehyde): 7.2 μM/OD/h | Product flux, substrate Succinic semialdehyde, product 2-hydroxyglutarate (Succinic semialdehyde): 15.2 μM/OD/h
